In US20220332804A1 (CSL INNOVATION, published 2022):
Substitutions are numbered along the chain they refer to.

How the values were obtained:
Assay in all cases: SPR, antibody captured, C2 as analyte;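 further: biacore SPR at 37 °C, anti-C2 mAbs captured via goat anti-human IgG on CM5 chips, double-referenced sensorgrams fit to a 1:1 kinetic or steady-state model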
[1] = target: T1, human complement C2 (wild type) (human, UniProt P06681 21-752)
T1 construct: Full-length human C2 (NP_000054) with C-terminal 8x His tag, secreted from Expi293F cells and purified from the supernatant; also called WT; huC2
T1 sequence: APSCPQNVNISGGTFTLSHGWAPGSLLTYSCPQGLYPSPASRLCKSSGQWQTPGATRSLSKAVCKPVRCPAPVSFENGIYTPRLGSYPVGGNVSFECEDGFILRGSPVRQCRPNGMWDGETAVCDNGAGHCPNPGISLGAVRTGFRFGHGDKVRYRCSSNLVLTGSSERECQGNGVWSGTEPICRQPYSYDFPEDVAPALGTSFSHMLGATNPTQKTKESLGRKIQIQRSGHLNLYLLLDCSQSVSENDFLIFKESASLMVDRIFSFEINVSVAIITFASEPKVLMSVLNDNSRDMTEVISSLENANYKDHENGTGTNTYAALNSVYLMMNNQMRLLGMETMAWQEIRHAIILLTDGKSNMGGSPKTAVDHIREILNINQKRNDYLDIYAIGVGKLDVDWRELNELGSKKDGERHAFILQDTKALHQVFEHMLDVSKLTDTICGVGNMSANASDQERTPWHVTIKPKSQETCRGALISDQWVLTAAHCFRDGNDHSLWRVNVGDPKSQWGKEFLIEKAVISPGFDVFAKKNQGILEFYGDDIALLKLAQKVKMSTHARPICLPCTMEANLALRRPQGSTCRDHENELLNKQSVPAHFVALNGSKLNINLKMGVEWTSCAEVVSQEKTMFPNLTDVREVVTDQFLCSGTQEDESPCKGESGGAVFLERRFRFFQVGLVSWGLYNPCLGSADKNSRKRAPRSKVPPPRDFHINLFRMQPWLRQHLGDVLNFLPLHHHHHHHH
Experimental: (§1) Surface plasmon resonance (SPR, Biacore) was used for all binding affinity analyses. In brief, goat anti-human IgG was directly immobilised onto the carboxymethyl dextran surface of CM5 sensorchips to approximately 12,000 RU using standard NHS/EDC chemistry at pH 5. The immobilised antibody surface was pre-conditioned with ten injections of polyclonal human IgG (Privigen 60 s) prepared at 1 μg/mL. Ligands (anti-C2 mAbs) were captured at the beginning of each cycle as described below. An adjacent spot or flow cell in which only Polyclonal IgG was capture was used as a reference surface. The goat anti-human IgG Fc antibody surface was regenerate in 100 mM H3PO4, injected for 45 seconds at the end of each cycle. Experiments were performed at 37° C. and the flow rate of each experiment was kept constant at 30 μL/min.
(§2) Sensogram data was double-referenced against a reference anti-IgG surface (i.e. minus anti-C2 mAb) and blank buffer injections obtained within each experiment. The binding data was fit to 1:1 (kinetic or steady-state) model using local Rmax and null refraction index (RI=0) when appropriate. Buffers and solutions were filtered (0.22 μm) prior to use.

human C2 D511A = target: T2, human C2 D511A (human, UniProt P06681 21-752)
T2 sequence: T1 sequence with D491A
Experimental: as §1, §2

human C2 G427A = target: T3, human C2 G427A (human, UniProt P06681 21-752)
T3 sequence: T1 sequence with G407A
Experimental: as §1, §2

B1: RF16-226 (antibody, human IgG4 S228P, lambda)
heavy: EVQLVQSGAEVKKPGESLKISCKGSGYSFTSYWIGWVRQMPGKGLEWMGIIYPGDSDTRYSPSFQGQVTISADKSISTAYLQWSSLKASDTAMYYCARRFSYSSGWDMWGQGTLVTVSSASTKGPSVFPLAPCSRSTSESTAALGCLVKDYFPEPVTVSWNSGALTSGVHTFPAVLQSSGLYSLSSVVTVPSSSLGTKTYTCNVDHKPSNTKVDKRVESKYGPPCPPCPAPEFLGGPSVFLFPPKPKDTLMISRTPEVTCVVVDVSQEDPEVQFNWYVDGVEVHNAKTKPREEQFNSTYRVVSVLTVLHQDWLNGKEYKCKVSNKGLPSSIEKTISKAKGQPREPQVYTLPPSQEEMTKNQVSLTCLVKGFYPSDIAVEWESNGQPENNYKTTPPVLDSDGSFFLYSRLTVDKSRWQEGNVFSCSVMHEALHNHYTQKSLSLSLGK
light: SYELTQPPSVSVSPGQTARITCSGDALTSKYVAWYQQKSGLAPLLVIYEDTRRPSGIPAKFSGSSSGSVATLTISGAHGDDEADYYCYSTDASGHQRVFGGGTKLTVLSQPKAAPSVTLFPPSSEELQANKATLVCLISDFYPGAVTVAWKADGSPVKAGVETTKPSKQSNNKYAASSYLSLTPEQWKSHRSYSCQVTHEGSTVEKTVAPTECS
notes: pH-dependent anti-C2 antibody from a phage display library; also called WT
B1 was tested, and the Kd [1] was 10.1 nM, the Kd (human C2 D511A) was 31.2 nM and the Kd (human C2 G427A) was 4.2 nM.
